OD450 and Mean fluorescence intensity data for 9 molecules are collected here from patent publication US20220033501A1 (SHANGHAI PHARMAEXPLORER, published 2022).

In test [1] the target is T1, monkey TIM-3 protein with hFc tag (cTIM-3-hFc protein) (monkey; human).
T1 construct: Made in HEK293 cells; also called monkey TIM-3 extracellular domain protein; not shown: human IgG Fc fragment (hFc) of the pCpC vector
T1 chain: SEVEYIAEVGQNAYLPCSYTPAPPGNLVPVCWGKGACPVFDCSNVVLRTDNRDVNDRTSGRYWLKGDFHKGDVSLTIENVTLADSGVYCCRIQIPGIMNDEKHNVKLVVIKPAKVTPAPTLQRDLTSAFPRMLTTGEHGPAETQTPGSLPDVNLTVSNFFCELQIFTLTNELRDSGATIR
Put plainly: ELISA, coated cTIM-3-hFc; antibody 0.0067 nM. From the text:
(§1) The amino acid sequence 22-200 of the extracellular domain of the human TIM-3 protein described in the step of Example 1 (as shown in SEQ ID NO. 71 in the sequence listing) was cloned into a pCpC vector having a human IgG Fc fragment (hFc), and transfected into HEK293 cells. The cell culture medium was collected, and purified to obtain the human TIM-3 protein with hFc tag (herein referred to as hTIM-3-hFc protein). The amino acid sequence 22-201 of the extracellular domain of the monkey TIM-3 protein (as shown in SEQ ID NO. 72 in the sequence listing) was cloned into a pCpC vector having a human IgG Fc fragment (hFc), and transfected into HEK293 cells. The cell culture medium was collected, and purified to obtain the monkey TIM-3 protein with hFc tag (herein referred to as cTIM-3-hFc protein). […] The cell culture medium was collected, and purified to obtain the murine TIM-3 protein with hFc tag (herein referred to as mTIM-3-hFc protein). Purified human, monkey, and mouse TIM-3 extracellular domain proteins (hTIM-3-hFc, cTIM-3-hFc, and mTIM-3-hFc) were diluted with PBS to a final concentration of 1.0 μg/ml and then added to a 96-well ELISA plate with 100 μl per well. The plate was sealed with plastic film and incubated overnight at 4° C. The plate was washed 4 times with the plate washing solution (PBS+0.01% Tween20) on the next day, and added with the blocking solution (PBS+0.01% Tween20+1% BSA) and sealed at room temperature for 1-2 hours. The blocking solution was poured out. 50-100 μl of the antibody sample to be tested was added to each well. The plate was incubated at 37° C. for 1-2 hours, and washed 2-3 times with plate washing solution (PBS+0. 01% Tween20). HRP (horseradish peroxidase) labeled secondary antibody was added. The plate was incubated at 37° C. for 1-2 hours, and washed 2-3 times with plate washing solution (PBS+0. 01% Tween20). […] of TMB substrate was added to each well. After incubated at room temperature for 15-30 minutes, the plate was added with […] stop solution (1.0N HCl) to each well. An ELISA plate reader (TiterMax 384plus, Molecular Device) was used to read the A450 nm value.
Background: In an ELISA, binding on a coated surface is turned into a signal by an enzyme label.

In test [2] the target is T2, human TIM-3 protein with hFc tag (hTIM-3-hFc protein) (human, UniProt Q8TDQ0 22-200).
T2 construct: also called immunogen 1; human TIM-3 extracellular domain protein; not shown: human IgG Fc fragment (hFc) of the pCpC vector
T2 sequence: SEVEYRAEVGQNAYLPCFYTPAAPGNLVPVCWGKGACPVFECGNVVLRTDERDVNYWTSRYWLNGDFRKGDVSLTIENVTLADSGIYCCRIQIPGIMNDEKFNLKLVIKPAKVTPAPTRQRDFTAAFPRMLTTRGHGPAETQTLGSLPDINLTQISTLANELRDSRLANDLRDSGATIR
Put plainly: ELISA, coated hTIM-3-hFc; antibody 0.6667 nM.
From the text: as §1

The target in test [3] is T2, human TIM-3 protein with hFc tag …. Briefly: ELISA, coated hTIM-3-hFc; antibody 0.0007 nM.
From the text: as §1

Test [4] addresses T3, murine TIM-3 protein with hFc tag (mTIM-3-hFc protein) (mouse; human, UniProt Q8VIM0 29-191).
T3 construct: Made in HEK293 cells; also called mouse TIM-3 extracellular domain protein; not shown: human IgG Fc fragment (hFc) of the pCpC vector
T3 chain: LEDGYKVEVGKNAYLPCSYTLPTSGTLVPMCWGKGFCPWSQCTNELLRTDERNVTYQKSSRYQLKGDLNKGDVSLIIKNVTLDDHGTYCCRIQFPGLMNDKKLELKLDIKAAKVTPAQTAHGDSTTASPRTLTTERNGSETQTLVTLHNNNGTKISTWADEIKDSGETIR
Briefly: ELISA, coated mTIM-3-hFc; antibody 0.6667 nM.
From the text: as §1

Test [5] has as its target T4, human TIM-3 extracellular domain protein with hFc tag (hTIM-3-hFc) (human, UniProt Q8TDQ0 22-200).
T4 construct: not shown: human IgG Fc fragment (hFc) of the pCpC vector
T4 sequence: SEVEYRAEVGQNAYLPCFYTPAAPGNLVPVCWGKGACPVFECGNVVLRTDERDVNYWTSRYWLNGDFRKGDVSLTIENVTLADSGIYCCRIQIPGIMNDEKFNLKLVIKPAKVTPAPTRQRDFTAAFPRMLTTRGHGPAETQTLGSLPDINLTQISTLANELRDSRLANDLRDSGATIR
Briefly: ELISA, coated human TIM-3 ECD protein, 0.6667 nM antibody.

For test [6], the target named is T5, monkey TIM-3 extracellular domain protein with hFc tag (cTIM-3-hFc) (monkey).
T5 construct: not shown: human IgG Fc fragment (hFc) of the pCpC vector
T5 chain: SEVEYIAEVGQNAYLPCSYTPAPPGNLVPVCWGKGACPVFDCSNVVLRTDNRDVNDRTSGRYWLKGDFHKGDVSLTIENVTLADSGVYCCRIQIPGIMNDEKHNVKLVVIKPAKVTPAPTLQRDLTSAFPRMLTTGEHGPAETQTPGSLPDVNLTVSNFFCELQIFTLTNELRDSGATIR
Put plainly: ELISA, coated monkey TIM-3 ECD protein, 0.6667 nM antibody.

Test [7] concerns the target T4, human TIM-3 extracellular domain …. Briefly: ELISA, coated human TIM-3 ECD protein, 66.667 nM antibody.
The target of test [8] is T6, monkey TIM-3 on CHOK1 stable cell line (CHOK1-cTIM-3) (monkey).
T6 chain: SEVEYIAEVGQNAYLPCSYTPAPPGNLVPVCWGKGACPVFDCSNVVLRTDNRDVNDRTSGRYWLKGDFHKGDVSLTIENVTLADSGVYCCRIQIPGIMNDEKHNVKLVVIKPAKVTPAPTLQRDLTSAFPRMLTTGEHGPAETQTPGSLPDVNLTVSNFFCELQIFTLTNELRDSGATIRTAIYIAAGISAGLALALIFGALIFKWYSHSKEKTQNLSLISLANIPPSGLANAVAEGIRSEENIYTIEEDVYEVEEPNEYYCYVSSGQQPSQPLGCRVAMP
Briefly: FACS, CHOK1-cTIM-3 cells, 0.013 nM antibody. A general note: In flow cytometry, cells or beads pass a laser one at a time.

In test [9] the target is T7, murine TIM-3 extracellular domain protein with hFc tag (mTIM-3-hFc) (mouse, UniProt Q8VIM0 29-191).
T7 construct: also called mouse TIM-3 extracellular domain protein; not shown: human IgG Fc fragment (hFc) of the pCpC vector
T7 chain: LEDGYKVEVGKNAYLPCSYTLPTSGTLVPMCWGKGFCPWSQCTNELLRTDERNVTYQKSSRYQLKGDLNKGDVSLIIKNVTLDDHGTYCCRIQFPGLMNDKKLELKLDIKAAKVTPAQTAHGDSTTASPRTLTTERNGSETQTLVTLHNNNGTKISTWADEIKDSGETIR
Put plainly: ELISA, coated mouse TIM-3 ECD protein, 0.0001 nM antibody.

For test [10], the target named is T7, murine TIM-3 extracellular domain …. Briefly: ELISA, coated mouse TIM-3 ECD protein, 66.667 nM antibody.

B1: 7A4F10 (TIM-3 antibody purified from hybridoma, chimeric antibody of Example 2) (antibody, V domains shown)
VH: EVQLLESGGGLVQPGGSLRLSCAASGFTFRTHLISWVRQAPGKGLEWVAAITGSGGSTYYADSVKGRFIISRDNSKNTLFLQMNSLRAEDTAVYYCAKDGGSGSYDDFWGQGTLVTVSS
VL: ETVLTQSPVTLSLSPGERATLSCRASQSVGSYLAWYQQKPGQAPRLLIYDASNRATGIPARFSGSGSGTDFTLTISSLEPEDFAVYYCQQRSNWPPTFGQGTKVEIK
notes: From hybridoma of Harbour H2L2 transgenic mice: human variable regions, rat constant regions
As to B1, the OD450 turned out to be 0.57 in test [1], 0.86 in [2], 0.12 in test [3] and 0.67 in [4].

B2: 215A8F2 (TIM-3 antibody purified from hybridoma, chimeric antibody of Example 2) (antibody, V domains shown)
VH: QVQLQQWGAGLLKPSETLSLTCTVYGGSFSGYYWNWIRQPPGKGLEWLGEINHSGSTNYNPSLKRRVTISVDTSKNQFSLKLSSVTAADTAVYYCARVYYYGPFDFWGQGTLVTVSS
VL: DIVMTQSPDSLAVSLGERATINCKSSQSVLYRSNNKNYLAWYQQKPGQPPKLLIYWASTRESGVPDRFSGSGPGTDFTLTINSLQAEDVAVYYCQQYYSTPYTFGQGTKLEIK
notes: as for B1
Take B2: the OD450 in test [1] was 0.7; in [2], 3.06; in test [3], 0.14; in [4], 0.65.

B3: 34B6D8 (TIM-3 antibody purified from hybridoma, chimeric antibody of Example 2) (antibody, V domains shown)
VH: EVQLVESGGGLVQPGGSLRLSCAASGFTFSTYWMTWVRQAPGKRLEWVANIKQGGGDKYYVDSVKGRFTISTDNAKNSLYLQMNSLRAEDTAVYYCARGSNWFDPWGQGTLVTVSS
VL: EIVMTQSPATLSMSPGERATLSCRASQSVYDNLAWYQQKPGQAPRLLIYGASTRATGIPARFSGSGSGTEFTLTISSLQSEDFALYYCQQYTHWPITFGQGTRLEIK
notes: as for B1
Regarding B3, the OD450 in [1] was 0.78; in [2], 3.41; in test [3] it was 0.15; in test [4] it was 0.65.

B4: 57F4E5 fully human TIM-3 antibody (human IgG4, kappa) (antibody, V domains shown)
VH: EVQLVESGGGLVQPGGSLRLSCAASGFTFSSYWMSWVRQAPGKGLEWVANIKQDGSEKYYVDSVKGRFTISRDSAKNSLYLQMNSLRAEDTAMYFCARDSNFFDYWGQGTLVTVSS
VL: ETVMTQSPATLSVSPGERATLSCRASQSVSSNLAWYQRKPGQAPRLLIYFSSTRATGIPARFSGSGSGTEFTLTISSLQSEDFAVYYCQQYNNWPLTFGGGTKVEIK
As for B4, the OD450 in test [5] amounted to 2.89; in [6] it was 3.15; in test [7], 3.06; in test [9], 0.24; in test [10] it was 1.55. This molecule also gave a Mean fluorescence intensity in test [8] of 11.4.

B5: 57F4E5 (TIM-3 antibody purified from hybridoma, chimeric antibody of Example 2) (antibody, V domains shown)
VH: EVQLVESGGGLVQPGGSLRLSCAASGFTFSSYWMSWVRQAPGKGLEWVANIKQDGSEKYYVDSVKGRFTISRDSAKNSLYLQMNSLRAEDTAMYFCARDSNFFDYWGQGTLVTVSS
VL: ETVMTQSPATLSVSPGERATLSCRASQSVSSNLAWYQRKPGQAPRLLIYFSSTRATGIPARFSGSGSGTEFTLTISSLQSEDFAVYYCQQYNNWPLTFGGGTKVEIK
notes: as for B1
On to B5, for which the OD450 in test [1] came out at 1.13; in test [2] it was 3.31; in test [3], 0.19; in test [4], 0.64.

B6: 18D2H2 (TIM-3 antibody purified from hybridoma, chimeric antibody of Example 2) (antibody, V domains shown)
VH: EVQLVESGGDLVQPGGSLRLSCAASGFTFSTYWMTWVRQAPGRGLEWVANIKQDGSAKYYVDSVKGRFTLSRDDAKNSLYLQMNSLRAEDTAVYYCARGSNWFDYWGQGTLVTVSS
VL: ETVMTQSPATLSVSPGERATLSCRANQNVYSNLAWYQQKPGQAPRLLIYDASTRATGFPARFSGSGSGTEFTLTISSLQSEDFAVYYCQQYNNWPLTFGGGTKVEIK
notes: as for B1
B6: the OD450 is 0.62 in test [1], 1.33 in test [2], 0.12 in test [3] and 0.66 in [4].

B7: 39E5H1 (TIM-3 antibody purified from hybridoma, chimeric antibody of Example 2) (antibody, V domains shown)
VH: EVQLVESGGGLVQPGGSLRLSCAASGFTFSSYWMSWVRQAPGKGLEWVANIKRGGSERYYVDSVKGRFTISGDNAKNSVYLQMNSLRAEDTAVYYCARGSNWFDPWGQGTLVTVSS
VL: ETVMTQSPAILSVSPGERATLSCRASQSVYSNLAWYQQKLGQAPRLLIYDASTRATGIPARFSGSGSGTEFTLTISSLQSEDFAVYYCQQYNNWPITFGQGTRLEIK
notes: as for B1
In the case of B7, the OD450 in test [1] is 0.85; in [2], 3.41; in [3] it was 0.16; in test [4], 0.66.

B8: 134H3G6 (TIM-3 antibody purified from hybridoma, chimeric antibody of Example 2) (antibody, V domains shown)
VH: EVQLVESGGGLVQPGGSLRLSCAASGFTFSNSWMTWVRQAPGKGLEWVANIKQAGTEKYYVDSVKGRFTISRDNAKNSLYLQMNSLRAEDTAVYYCNSGSNYFDYWGQGTLVTVSS
VL: EIVMTQSPATLSVSPGERATLSCRARQNFYSNLAWYQQKPGQAPRLLIYGASTRATGIPARFSGSGSGTEFTLTISSLQSEDFAVYYCQQYNNWPLTFGGGTKVEIK
notes: as for B1
On to B8, for which the OD450 in test [1] was determined as 0.56; in test [2] it was 0.69; in test [3] it was 0.13; in test [4], 0.66.

B9: 134H3G6 fully human TIM-3 antibody (human IgG4, kappa) (antibody, V domains shown)
VH: EVQLVESGGGLVQPGGSLRLSCAASGFTFSNSWMTWVRQAPGKGLEWVANIKQAGTEKYYVDSVKGRFTISRDNAKNSLYLQMNSLRAEDTAVYYCNSGSNYFDYWGQGTLVTVSS
VL: EIVMTQSPATLSVSPGERATLSCRARQNFYSNLAWYQQKPGQAPRLLIYGASTRATGIPARFSGSGSGTEFTLTISSLQSEDFAVYYCQQYNNWPLTFGGGTKVEIK
With B9, the OD450 in [5] worked out at 2.74; in [6] it was 3.1; in [7], 2.77; in test [9], 0.22; in test [10], 0.94. Further, in test [8], the Mean fluorescence intensity was 16.8.
